For the test, the target named is T1, His-RCC2 (human, UniProt Q9P258 1-522).
T1 construct: Regulator of chromosome condensation 2 (RCC2), human, full length, cloned by PCR from pSA-RCC2 into pET-28a; pET-28a (His-tag vector, Novagen); also called regulator of chromosome condensation 2; telophase disc protein of 60 kDa; source: Escherichia coli BL21, purified
The test can be described thus: pull-down; GST pull-down with purified GST, GST-NudCL2 and His-RCC2; incubated in PBS at 4°C for 4 h, then glutathione-agarose beads for 2 h; Western blot. The note with it: both partners purified.

T1 sequence (Q9P258 whole entry): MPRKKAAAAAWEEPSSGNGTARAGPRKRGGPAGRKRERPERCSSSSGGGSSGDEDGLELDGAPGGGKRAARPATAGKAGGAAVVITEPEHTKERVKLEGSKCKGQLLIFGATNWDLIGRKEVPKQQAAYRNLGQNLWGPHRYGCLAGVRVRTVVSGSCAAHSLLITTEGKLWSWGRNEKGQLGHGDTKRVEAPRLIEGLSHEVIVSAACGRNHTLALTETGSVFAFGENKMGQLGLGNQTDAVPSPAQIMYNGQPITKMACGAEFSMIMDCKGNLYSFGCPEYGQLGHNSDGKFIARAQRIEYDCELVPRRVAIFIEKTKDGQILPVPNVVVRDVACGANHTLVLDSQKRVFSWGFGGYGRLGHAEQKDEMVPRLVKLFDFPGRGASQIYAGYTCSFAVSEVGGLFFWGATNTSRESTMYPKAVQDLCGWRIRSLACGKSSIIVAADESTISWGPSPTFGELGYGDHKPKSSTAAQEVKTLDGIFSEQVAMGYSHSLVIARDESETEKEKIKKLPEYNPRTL

B1: GST-NudCL2 (natural protein, human, UniProt Q8WVJ2 1-157, looked up)
chain: MSAPFEERSGVVPCGTPWGQWYQTLEEVFIEVQVPPGTRAQDIQCGLQSRHVALSVGGREILKGKLFDSTIADEGTWTLEDRKMVRIVLTKTKRDAANCWTSLLESEYAADPWVQDQMQRKLTLERFQKENPGFDFSGAEISGNYTKGGPDFSNLEK
notes: NudC-like protein 2 (NudCL2, NudCD2), human; Li et al., 2019; Yang et al., 2010, 2019) for the vector; also called NudC-like protein 2; NudC domain-containing protein 2; source: Escherichia coli BL21, purified
Turning to B1, the binding result was “binds”.

For the origin of these results see article PMC11443449, “NudCL2 is required for cytokinesis by stabilizing RCC2 with Hsp90 at the midbody” (Protein & Cell, 2024).
